Experiments:
[1] = molecular target: carboxyl terminal APC fragment (UniProt P25054)
carboxyl terminal APC fragment, sequence (P25054 2168-2843): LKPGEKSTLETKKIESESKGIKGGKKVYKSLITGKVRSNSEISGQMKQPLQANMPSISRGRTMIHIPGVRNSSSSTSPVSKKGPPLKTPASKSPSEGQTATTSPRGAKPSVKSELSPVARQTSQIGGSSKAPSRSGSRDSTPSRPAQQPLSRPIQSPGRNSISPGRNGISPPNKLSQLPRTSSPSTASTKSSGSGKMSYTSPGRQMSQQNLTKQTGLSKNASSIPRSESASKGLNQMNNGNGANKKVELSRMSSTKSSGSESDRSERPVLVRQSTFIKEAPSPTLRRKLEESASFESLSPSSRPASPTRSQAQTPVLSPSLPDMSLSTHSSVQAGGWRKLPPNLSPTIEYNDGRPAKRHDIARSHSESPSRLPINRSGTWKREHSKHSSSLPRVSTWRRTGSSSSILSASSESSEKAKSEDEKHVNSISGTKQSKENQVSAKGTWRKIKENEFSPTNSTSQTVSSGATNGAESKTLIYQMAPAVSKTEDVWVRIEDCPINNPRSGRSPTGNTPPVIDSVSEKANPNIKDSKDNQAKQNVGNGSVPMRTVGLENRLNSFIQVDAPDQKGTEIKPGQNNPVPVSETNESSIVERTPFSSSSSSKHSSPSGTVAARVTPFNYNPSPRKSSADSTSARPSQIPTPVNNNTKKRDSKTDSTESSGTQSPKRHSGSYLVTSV

Protein: MNSRPRRRDIDRLEHLHLTEFGLKLGQKIFLLNKRDFILFLSLF (enzyme) [CATX-2 protein]
- phosphorylation in vitro (γ-32P) (poly-threonine): CATX-2 protein could phosphorylate histone 5 µg, poly-threonine 5 µg
- phosphorylation in vitro (γ-32P) (histone): CATX-2 protein could phosphorylate histone 5 µg
- phosphorylation in vitro (γ-32P) [1]: CATX-2 protein could phosphorylate histone 5 µg, poly-threonine 5 µg, and COOH-APC fragment (1-5 µg)
